# From patent US20230321189
# B1: purified rat m-calpain (protein)
# chain: MAGIAMKLAKDREAAEGLGSHERAIKYLNQDYETLRNECLEAGALFQDPSFPALPSSLGFKELGPYSSKTRGIEWKRPTEICADPQFIIGGATRTDICQGALGDCWLLAAIASLTLNEEILARVVPLDQSFQENYAGIFHFQFWQYGEWVEVVVDDRLPTKDGELLFVHSAEGSEFWSALLEKAYAKINGCYEALSGGATTEGFEDFTGGIAEWYELRKPPPNLFKIIQKALEKGSLLGCSIDITSAADSEAVTYQKLVKGHAYSVTGAEEVESSGSLQKLIRIRNPWGQVEWTGKWNDNCPSWNTVDPEVRANLTERQEDGEFWMSFSDFLRHYSRLEICNLTPDTLTCDSYKKWKLTKMDGNWRRGSTAGGCRNYPNTFWMNPQYLIKLEEEDEDDEDGERGCTFLVGLIQKHRRRQRKMGEDMHTIGFGIYEVPEELTGQTNIHLSKNFFLTTRARERSDTFINLREVLNRFKLPPGEYVLVPSTFEPHKNGDFCIRVFSEKKADYQTVDDEIEANIEEIEANEEDIGDGFRRLFAQLAGEDAEISAFELQTILRRVLAKREDIKSDGFSIETCKIMVDMLDEDGSGKLGLKEFYILWTKIQKYQKIYREIDVDRSGTMNSYEMRKALEEAGFKLPCQLHQVIVARFADDELIIDFDNFVRCLVRLEILFKIFKQLDPENTGTIQLDLISWLSFSVL
# Target: tropomyosin-receptor kinase B-full-length (TrkB-FL), endogenous rat, Q63604
# Sequence (Q63604 32-821): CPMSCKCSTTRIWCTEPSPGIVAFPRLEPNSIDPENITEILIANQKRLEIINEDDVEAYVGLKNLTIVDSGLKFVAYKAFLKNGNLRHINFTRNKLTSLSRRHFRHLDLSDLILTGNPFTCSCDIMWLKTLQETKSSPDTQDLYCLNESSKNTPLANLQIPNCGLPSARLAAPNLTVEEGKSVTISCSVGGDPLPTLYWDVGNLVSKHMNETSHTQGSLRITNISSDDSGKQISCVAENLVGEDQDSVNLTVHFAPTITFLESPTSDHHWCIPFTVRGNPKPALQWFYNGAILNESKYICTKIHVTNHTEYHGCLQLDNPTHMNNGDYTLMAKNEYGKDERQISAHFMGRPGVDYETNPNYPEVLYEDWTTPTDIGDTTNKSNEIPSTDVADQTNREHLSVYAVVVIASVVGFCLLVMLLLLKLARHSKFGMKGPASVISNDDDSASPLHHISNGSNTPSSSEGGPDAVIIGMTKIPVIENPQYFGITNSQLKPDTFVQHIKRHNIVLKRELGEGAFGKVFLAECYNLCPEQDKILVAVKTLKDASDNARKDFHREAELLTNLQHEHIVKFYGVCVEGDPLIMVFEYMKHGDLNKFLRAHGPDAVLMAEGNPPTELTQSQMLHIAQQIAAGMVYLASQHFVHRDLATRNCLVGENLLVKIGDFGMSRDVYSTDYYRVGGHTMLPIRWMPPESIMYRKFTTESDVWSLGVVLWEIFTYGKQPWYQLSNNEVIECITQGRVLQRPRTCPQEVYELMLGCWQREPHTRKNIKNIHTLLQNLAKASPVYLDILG
protein,measurement,value
B1,"TrkB-FL protein levels and TrkB-ICD formation in DIV8 neuronal cultures lysate (western blot, enzyme cleavage)",decrease of TrkB-FL protein levels with concomitant TrkB-ICD formation when both exogenous m-calpain (1 or 2 EU) and CaCl2 (2 mM) were added
same,"TrkB-FL protein levels and TrkB-ICD formation in adult rat brain cortex homogenate (western blot, enzyme cleavage)","decrease of TrkB-FL protein levels with concomitant TrkB-ICD formation when both exogenous m-calpain (1 or 2 enzymatic units, EU) and CaCl2 (2 mM) were added"
